In paper PMC4491177, “Co-translational capturing of nascent ribosomal proteins by their dedicated chaperones” (Nature Communications, 2015):
Substitutions are numbered along the chain they refer to. Numbers in names are those of the source. Ends that are not written are not given here.

Columns and labels:
Sqt1 = experiment: Y2H interaction with Sqt1; assay type: binding, S. cerevisiae; conditions: reporter strain PJ69-4A, HIS3 and ADE2 reporters, 3 days at 30 °C
Procedure: For Y2H interaction assays, plasmids expressing bait proteins, fused to the Gal4 DNA-binding domain (G4BD), and prey proteins, fused to the Gal4 activation domain (G4AD), were co-transformed into reporter strain PJ69-4A. Y2H interactions were documented by spotting representative transformants in 10-fold serial dilution steps onto SC-Trp-Leu, SC-Trp-Leu-His (HIS3 reporter) and SC-Trp-Leu-Ade (ADE2 reporter) plates, which were incubated for 3 days at 30 °C. Growth on SC-Trp-Leu-His plates is indicative of a weak/moderate interaction, whereas only relatively strong interactions permit growth on SC-Trp-Leu-Ade plates.

Sqt1-Flag = experiment: in vitro binding assay, Ni-affinity co-purification of Sqt1-Flag; set-up: species or system S. cerevisiae; conditions: co-expression in E. coli, C-terminally (His)6-tagged Rpl10, Ni-affinity, SDS–PAGE and western blot
Procedure: For in vitro binding assays between Rpl10-(His)6 and Sqt1-Flag or between ctRpl10-(His)6 and ctSqt1, proteins were co-expressed from pETDuet-1 (Novagen) in Rosetta(DE3) (Novagen) or BL21(DE3) (Novagen) E. coli cells, respectively. Cells were grown in 200 ml of lysogeny broth medium and protein expression was induced at an OD600 of ∼0.6–0.8 by the addition of isopropyl-β-D-thiogalactoside to a final concentration of 0.5 mM. After 5 h of growth at 30 °C, cells were harvested and stored at −80 °C. Cells were resuspended in 25 ml lysis buffer (50 mM Tris-HCl (pH 7.5), 200 mM NaCl, 1.5 mM MgCl2 and 5% glycerol) and lysed with a M-110L Microfluidizer (Microfluidics). The lysate (30 ml volume) was adjusted by the addition of 300 μl 10% NP-40 to 0.1% NP-40 (note that from here onwards all buffers contained 0.1% NP-40). An aliquot of 100 μl of total extract (sample T) was taken and mixed with 100 μl of 6 × loading buffer. The total extract was then centrifuged at 4 °C for 20 min at 14,000 r.p.m. The soluble extract was transferred to a 50-ml Falcon tube and, as above, an aliquot of 100 μl of soluble extract (sample S) was taken and mixed with 100 μl of 6 × loading buffer. The insoluble pellet fraction (sample P) was resuspended in 3 ml of lysis buffer, and 10 μl thereof were mixed with 90 μl of lysis buffer and 100 μl of 6 × loading buffer. […]

[1] = molecular target: T1, ScSqt1.53C (WD-repeat β-propeller domain of Sqt1) (Saccharomyces cerevisiae, UniProt P35184); experiment: isothermal titration calorimetry (ITC), S. cerevisiae; assay type: binding; conditions: for K / N / ΔH / ΔS: ScSqt1.53C, 15 °C, One Set of Sites fit
T1 construct: ScSqt1.53C (residues 53–431); (His)6 (C); made in house; host or cells: E. coli Rosetta(DE3)
T1 sequence (P35184 53-431): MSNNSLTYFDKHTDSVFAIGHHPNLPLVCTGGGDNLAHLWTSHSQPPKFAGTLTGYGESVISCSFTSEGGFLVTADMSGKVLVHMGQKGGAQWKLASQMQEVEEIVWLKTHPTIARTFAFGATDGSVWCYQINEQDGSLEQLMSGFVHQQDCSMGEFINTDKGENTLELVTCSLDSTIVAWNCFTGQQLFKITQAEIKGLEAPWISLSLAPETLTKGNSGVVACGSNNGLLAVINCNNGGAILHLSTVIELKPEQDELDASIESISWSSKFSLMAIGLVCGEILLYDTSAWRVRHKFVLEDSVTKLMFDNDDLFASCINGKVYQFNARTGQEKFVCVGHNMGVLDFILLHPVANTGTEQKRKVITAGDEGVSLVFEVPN
Procedure: ITC experiments were performed on a MicroCal ITC 2000 instrument (GE Healthcare). The following peptides, corresponding to the N-terminal 19 (without N-terminal methionine) or 20 amino acids of S. cerevisiae and C. thermophilum Rpl10, were synthesized with a free acid group at the C terminus (peptides&elephants): Rpl10(1–20) NH2-[…]-COOH, Rpl10(2–20) NH2-[…]-COOH, ctRpl10(1–20) NH2-[…]-COOH and ctRpl10(2–20) NH2-[…]-COOH. Peptides (1 mg each) were dissolved in the appropriate volume of gel-filtration buffer (20 mM HEPES–NaOH (pH 7.5), 200 mM NaCl, 20 mM KCl and 20 mM MgCl2), which was used for the purification of ScSqt1.53C and ctSqt1.52C, to obtain 1 mM stock solutions. Concentrations of proteins were determined by measuring the A280 using a NanoDrop Lite spectrophotometer (Thermo Scientific). For determination of the C. thermophilum Sqt1/L10-N binding, 200 μl of ctSqt1.52C (10 μM) was added to the sample cell and 2 μl of 100 μM solutions of the peptides was titrated in at 25 °C. For determination of the S. cerevisiae Sqt1/L10-N binding, 200 μl of ScSqt1.53C (100 μM) was added to the sample cell and 2 μl of 1 mM solutions of the peptides were titrated in at 15 °C. ITC data were processed using the Origin ITC Software (OriginLab) and thermodynamic parameters were obtained by fitting the data to a One Set of Sites binding model.

Sqt1.53C-(His)6 [2] = molecular target: T2, Sqt1.53C-(His)6 (S. cerevisiae, UniProt P35184 53-431); experiment: ITC
T2 chain: T1 sequence (P35184 53-431)

Sqt1.53C-(His)6 [3] = molecular target: T3, Sqt1.53C-(His)6 (S. cerevisiae, UniProt P35184 53-431); experiment: ITC; 200 μl ScSqt1.53C (100 μM) in the cell, 2 μl injections of 1 mM peptide, 15 °C; 20 mM HEPES–NaOH (pH 7.5), 200 mM NaCl, 20 mM KCl, 20 mM MgCl2; One Set of Sites model; approximate Kd; conditions: both partners purified
T3 construct: Sqt1, S. cerevisiae, residues 53–431 (WD-repeat β-propeller domain); the ITC methods name only 'ScSqt1.53C'; the only free Sqt1.53C whose purification is described is Sqt1.53C-(His)6; also called ScSqt1.53C; source: E. coli Rosetta(DE3), purified (Ni-NTA, size-exclusion chromatography)
T3 sequence (looked up): T1 sequence (P35184 53-431)

ctSqt1.52C-(His)6 [4] = molecular target: T4, ctSqt1.52C-(His)6 (Chaetomium thermophilum); experiment: ITC
T4 chain: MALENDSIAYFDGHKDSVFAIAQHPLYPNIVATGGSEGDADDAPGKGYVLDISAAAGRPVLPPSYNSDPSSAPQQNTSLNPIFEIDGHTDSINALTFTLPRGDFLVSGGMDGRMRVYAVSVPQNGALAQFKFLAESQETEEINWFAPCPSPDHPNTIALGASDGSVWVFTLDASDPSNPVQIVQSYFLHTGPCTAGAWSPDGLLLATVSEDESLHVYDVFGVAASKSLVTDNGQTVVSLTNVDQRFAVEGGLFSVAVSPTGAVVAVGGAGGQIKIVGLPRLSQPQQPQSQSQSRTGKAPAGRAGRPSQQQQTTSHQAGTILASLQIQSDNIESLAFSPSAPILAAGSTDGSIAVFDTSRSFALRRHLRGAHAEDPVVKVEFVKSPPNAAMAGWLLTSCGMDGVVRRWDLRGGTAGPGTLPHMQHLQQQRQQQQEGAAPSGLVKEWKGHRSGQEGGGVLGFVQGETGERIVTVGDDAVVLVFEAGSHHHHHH

ctSqt1.52C-(His)6 [5] = molecular target: T4, ctSqt1.52C-(His)6; experiment: ITC; 200 μl ctSqt1.52C (10 μM) in the cell, 2 μl injections of 100 μM peptide, 25 °C; 20 mM HEPES–NaOH (pH 7.5), 200 mM NaCl, 20 mM KCl, 20 mM MgCl2; One Set of Sites model; approximate Kd

With “amino acids 1–20 of Rpl10: amino acids 1–20 of Rpl10, Y2H bait fused to G4BD (MARRPARCYRYQKNKPYPKS; also: fused to Gal4 DNA-binding domain; UniProt P41805 1-20, looked up, fragment)” the “Y2H interaction with Sqt1” value (Sqt1) was “sufficient to mediate the interaction with Sqt1”.

In the case of “L10-N: N-terminal residues of Rpl10 (general term; co-crystals and pull-downs use co-expressed Rpl10(1–20)-(His)6) (MARRPARCYRYQKNKPYPKS; not fully specified)”, the “co-purification with / interaction with Sqt1” value (Sqt1-Flag) is reported as “required and sufficient for a robust interaction both with full-length Sqt1 and its β-propeller domain”.

In the case of ARRPARCYRYQKNKPYPKS [ScL10-N(2–20)], the K [1] is reported as 4.78E7±2.57E7, the N [1] is reported as 1.076±0.0048 and the ΔH [1] is reported as −1.187E4±102.9. For the same molecule, the ΔS [1] was −6.02 and the “preference of Sqt1 for the L10-N peptide lacking Met1” value ([1]; vs peptide containing Met1, S. cerevisiae) was “only a slight preference”.

In the case of MARRPARCYRYQKNKPYPKS [ScL10-N(1-20)], the K [1] is reported as 2.33E7±1.79E7, the N [1] is reported as 1.09±0.00692 and the ΔH [1] is reported as −1.101E4 +/−158.6. For the same molecule, the ΔS [1] was −4.45.

B1: Rpl10(1–20) peptide (peptide)
peptide: MARRPARCYRYQKNKPYPKS
notes: Rpl10 (uL16), S. cerevisiae, N-terminal 20 amino acids; free amino group at the N terminus, free acid group at the C terminus; also called ScL10-N peptide including Met1 (amino acids 1–20); source: synthetic peptide (peptides&elephants)
B1 showed a Ka (Sqt1.53C-(His)6 [2]) of 2.33e+07 M⁻¹ and a Kd (Sqt1.53C-(His)6 [3]) of about 43 nM.

B2: Rpl10-(His)6: C-terminally (His)6-tagged Rpl10 (protein)
chain: MARRPARCYRYQKNKPYPKSRYNRAVPDSKIRIYDLGKKKATVDEFPLCVHLVSNELEQLSSEALEAARICANKYMTTVSGRDAFHLRVRVHPFHVLRINKMLSCAGADRLQQGMRGAWGKPHGLAARVDIGQIIFSVRTKDSNKDVVVEGLRRARYKFPGQQKIILSKKWGFTNLDRPEYLKKREAGEVKDDGAFVKFLSKKGSLENNIREFPEYFAAQA
modifications: left off: (His)6, C-terminal, kept
notes: C-terminally (His)6-tagged Rpl10
With B2 the “co-purification with / interaction with Sqt1” value (Sqt1-Flag) was “efficient co-purification of Sqt1-Flag”.

B3: Arg10 to glutamate: Rpl10 variant, Arg10 mutated to glutamate (protein, UniProt P41805 2-221, looked up, variant R10E)
Large ribosomal subunit …: ARRPARCYEYQKNKPYPKSRYNRAVPDSKIRIYDLGKKKATVDEFPLCVHLVSNELEQLSSEALEAARICANKYMTTVSGRDAFHLRVRVHPFHVLRINKMLSCAGADRLQQGMRGAWGKPHGLAARVDIGQIIFSVRTKDSNKDVVVEGLRRARYKFPGQQKIILSKKWGFTNLDRPEYLKKREAGEVKDDGAFVKFLSKKGSLENNIREFPEYFAAQA
In the case of B3, the “Y2H interaction with Sqt1” value (Sqt1) is reported as “abolished”.

B4: Arg4 to glutamate: Rpl10 variant, substitution of Arg4 to glutamate (protein, UniProt P41805 2-221, looked up, variant R4E)
Large ribosomal subunit …: B3 Large ribosomal subunit … with R3E, E9R
For B4, the “Y2H interaction with Sqt1” value (Sqt1) was “only slightly reduced the interaction with Sqt1”.

B5: ctRpl10(1–20) peptide (peptide)
peptide: MARRPARCYRYCKNKPYPKS
Work on B5 yielded a Ka (ctSqt1.52C-(His)6 [4]) of 2.26e+06 M⁻¹ and a Kd (ctSqt1.52C-(His)6 [5]) of 442 nM.

B6: first 64 amino acids of Rpl10: first 64 amino acids of Rpl10, Y2H bait (protein, UniProt P41805 1-64, looked up, fragment)
chain: MARRPARCYRYQKNKPYPKSRYNRAVPDSKIRIYDLGKKKATVDEFPLCVHLVSNELEQLSSEA
modifications: Y2H bait
notes: first 64 amino acids of Rpl10, Y2H bait
With B6 the “Y2H interaction with Sqt1” value (Sqt1) was “binds”.

B7: ctRpl10(2–20) peptide (peptide)
peptide: ARRPARCYRYCKNKPYPKS
Work on B7 yielded a Ka (ctSqt1.52C-(His)6 [4]) of 2.82e+07 M⁻¹ and a Kd (ctSqt1.52C-(His)6 [5]) of 35 nM.

B8: Rpl10(2–20) peptide (peptide)
peptide: ARRPARCYRYQKNKPYPKS
notes: Rpl10 (uL16), S. cerevisiae, N-terminal 19 amino acids without the N-terminal methionine; free amino group at the N terminus, free acid group at the C terminus; also called ScL10-N peptide lacking Met1 (amino acids 2–20); source: synthetic peptide (peptides&elephants)
In the case of B8, the Ka (Sqt1.53C-(His)6 [2]) is reported as 4.78e+07 M⁻¹ and the Kd (Sqt1.53C-(His)6 [3]) is reported as about 21 nM.
